For one protein, Km results are on record in patent US7279304B2, “Methods for preparation of macrocyclic molecules and macrocyclic molecules prepared thereby” (President and Fellows of Harvard College, priority 2000, dated 2007).

Assay in all cases: purified protein, by the assay type
Holding throughout (assay type): biochemical
Settings in all cases: other: Table 1; macrocyclization of peptide-SNAC substrate; 25 mM MOPS, pH 7.0

Substrate in data set [1]: CC(=O)NCCSC(=O)[C@H](CC(C)C)NC(=O)[C@H](CCCN)NC(=O)[C@@H](NC(=O)[C@H](Cc1ccc(O)cc1)NC(=O)[C@H](CCC(N)=O)NC(=O)[C@H](CC(N)=O)NC(=O)[C@H](Cc1ccccc1)NC(=O)[C@@H]1CCCN1C(=O)[C@H](N)Cc1ccccc1)C(C)C
On the procedure: (§1) Macrocyclization reactions were carried out in 25 mM MOPS, pH 7.0 in a total volume of 400 μL. Reactions were initiated by addition of TycC TE and quenched at various time points by the addition of 25 μL 1.7% TFA/water, flash frozen in liquid nitrogen and stored at −80° C. (for Ex. 13, reactions were quenched by the addition of sodium phosphate, pH 5.3, to 100 mM). The reactions were then thawed, 85 μL acetonitrile added, and analyzed by analytical HPLC with monitoring at 220 nm (20% to 80% acetonitrile in 0.1% TFA/water, or in 25 mM potassium phosphate, pH 5.3 for Ex. 13, over 35 minutes, Vydac protein and peptide C18 column). Initial rates were calculated using 1 minute time points. Peptide-SNAC and reaction product concentrations were determined for all Tyr-containing peptides based on the estimated extinction coefficient ε (280 nm)=1,280 M^−1 cm^−1, which agrees with the experimentally determined ε (280 nm) of Ex. 1. For peptide-SNACs not containing Tyr, ε (220 nm) was determined experimentally, and concentrations of corresponding cyclic products determined by assuming equal ε (220 nm) values for the peptide-SNAC and cyclic product.

Substrate in data set [2]: CC(=O)NCCSC(=O)[C@H](CC(C)C)NC(=O)[C@H](CCCN)NC(=O)[C@H](C)NC(=O)[C@H](Cc1ccc(O)cc1)NC(=O)[C@H](CCC(N)=O)NC(=O)[C@H](CC(N)=O)NC(=O)[C@@H](Cc1ccccc1)NC(=O)[C@H](Cc1ccccc1)NC(=O)[C@@H]1CCCN1C(=O)[C@H](N)Cc1ccccc1
The procedure:
as §1

Substrate in data set [3]: CC(=O)NCCSC(=O)[C@H](C)NC(=O)[C@H](CCCN)NC(=O)[C@@H](NC(=O)[C@H](Cc1ccc(O)cc1)NC(=O)[C@H](CCC(N)=O)NC(=O)[C@H](CC(N)=O)NC(=O)[C@@H](Cc1ccccc1)NC(=O)[C@H](Cc1ccccc1)NC(=O)[C@@H]1CCCN1C(=O)[C@H](N)Cc1ccccc1)C(C)C
On the procedure:
as §1

Substrate in data set [4]: CC(=O)NCCSC(=O)[C@H](CC(C)C)NC(=O)[C@H](CCCN)NC(=O)[C@@H](NC(=O)[C@H](Cc1ccc(O)cc1)NC(=O)[C@H](CCC(N)=O)NC(=O)[C@H](CC(N)=O)NC(=O)[C@@H](C)NC(=O)[C@H](Cc1ccccc1)NC(=O)[C@@H]1CCCN1C(=O)[C@H](N)Cc1ccccc1)C(C)C
The procedure: as §1

Substrate in data set [5]: CC(=O)NCCSC(=O)[C@H](CC(C)C)NC(=O)[C@H](CCCN)NC(=O)[C@@H](NC(=O)[C@H](Cc1ccc(O)cc1)NC(=O)[C@H](CCC(N)=O)NC(=O)[C@H](CC(N)=O)NC(=O)[C@@H](Cc1ccccc1)NC(=O)[C@H](Cc1ccccc1)NC(=O)[C@H](C)NC(=O)[C@H](N)Cc1ccccc1)C(C)C
The procedure:
as §1

B1: TycC TE (excised TE domain protein from the tyrocidine NRPS) (Brevibacillus parabrevis) (protein)
chain: FESRYGTAILLNQETARNVFCFTPIGAQSVYYQKLAAEIQGVSLYSFDFIQDDNRMEQYIAAITAIDPSGPYTLMGYSSGGNLAFEVAKELEERGYGVTDIILFDSYWKDKAIERTVAETENDIAQLFAEIGENTEMFNMTQEDFQLYAANEFVKQSFVRKTVSYVMFHNNLVNTGMTTAAIHLIQSELEADEEAPVAAKWNESAWANATQRLLTYSGHGIHSRMLAGDYASQNASILQNILQELFILK
notes: excised TE domain protein from the tyrocidine NRPS (TycC TE); made in house
What is called Km is the concentration of substrate that gives half-maximal velocity. Turning to B1, the Km in data set [1] is 6 µM; in data set [2], 9 µM; in data set [3], 6 µM; in data set [4], 6 µM; in data set [5], 3 µM.
